Measured values: the supplement of paper PMC10567573

B1: MLL5 (parent)
chain: DCMGIDRQHIPDTYLCERCQPRNL
B2: ZBTB22 (parent)
chain: AVLAASSPYFHDQVLLKGMTSISL

Variants of: B1
Experiment: protein stability index of a GFP-peptide fusion (GPS, HEK-293T) (PSI 1-6); higher = more stable
Conditions: c terminus: a fixed tail appended
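Also: lentivirally expressed fusions sorted by FACS into six bins by GFP to DsRed ratio, PSI derived from sequencing read proportions per bin multiplied by bin number.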

Protein stability index: each site, then its substitutions
N23: M 2.83 | T 2.61 | L 2.5 | V 2 | S 3.07 | R 1.53 | W 2.49 | I 2.29 | C 1.85 | Q 2.62 | H 2.36 | A 2.09 | D 3.08 | G 3 | K 2.73 | E 2.86 | Y 1.94 | P 3.1 | F 2.58
R22: L 3.31 | S 3.31 | A 3.57 | N 2.94 | D 3.42 | W 1.99 | T 3.34 | K 3.19 | Q 3.19 | G 3.28 | I 2.9 | H 2.72 | E 3.98 | M 1.86 | Y 2.49 | V 2.67 | P 3.34 | C 3.66 | F 2.35
C19: V 2.65 | I 3.02 | T 4.09 | P 4.55 | K 3.67 | M 1.98 | L 3.43 | N 4.06 | F 3.14 | R 4.24 | G 3.63 | W 2.63 | D 4.73 | Y 2.8 | A 4.26 | S 3.85 | Q 3.88 | E 4.12 | H 3.7
R18: P 3.15 | I 2.9 | K 2.63 | S 3.12 | T 3.15 | M 2.74 | L 2.84 | Q 3.01 | Y 2.23 | N 3.58 | V 2.19 | W 2.25
P21: G 3.45 | N 3.21 | T 2.95 | I 2.5 | L 3.61 | A 3.58 | D 4.21 | Y 2.88 | V 2.48 | R 3.4 | E 4 | Q 3.93 | M 3.62 | W 1.7 | F 2.49 | H 2.76 | C 3.21 | S 2.93 | K 3.53
L24: Q 3.51 | R 2.62 | V 2.84 | Y 2.86 | N 3.26 | E 3.44 | S 3.84 | A 3.55 | D 3.88 | F 2.71 | G 3.73 | M 2.69 | H 2.91 | T 3.14 | C 3.24 | P 2.64 | K 4.2 | W 2.77 | I 2.36
Q20: E 3.21 | A 2.81 | C 2.69 | G 2.79 | N 3.33 | T 3.53 | K 2.68 | W 2.27 | Y 2.94 | P 3.24 | D 4.22 | S 3.03 | V 2.79 | M 3.26 | H 2.8 | F 2.37 | I 2.55 | L 1.99

Variants of: B2
Experiment: as above
Conditions: c terminus: a fixed tail appended

Protein stability index, by site and new letter:
K17: N 1.43 | A 1.94 | I 3.47 | Y 2.88 | P 2.05
S7: V 2.11 | E 2.33 | W 2 | H 2.8 | L 2.91 | D 3.38 | T 3.75 | I 4.5 | Y 1.47
A4: Y 2 | P 1.05 | H 4.29 | F 2.24 | M 2.04 | G 1.92 | E 2.48 | S 1.88 | K 2.92 | D 1.15 | I 2.48 | L 2.9
A5: Y 2.44 | W 1.88 | N 2.66 | Q 3.23 | L 2.21 | E 1.55 | H 2.04 | K 3.55 | T 3.75 | S 2.6 | F 2.98
T20: E 2.54
G18: N 2.37 | V 2.66 | W 2.61 | I 2.8 | S 3.59 | K 2.14 | D 3.05 | F 3.77 | E 1.46 | H 1.84 | A 3.06 | Y 3.35
V14: A 2.47 | Q 1.73 | P 1.63 | F 1.8 | E 2.47 | R 3.36 | D 1.71 | S 3.06 | M 2.72 | H 2.37 | N 2.07 | Y 2.25 | T 2.96 | C 3.27 | K 1.04
F10: C 2.28 | R 1.41 | N 1.92 | Q 1.65 | P 1 | E 1.76 | W 2.24 | M 2.72 | G 2.6 | D 2.04 | V 2.44 | H 2.49 | Y 2.19 | K 1.73 | S 1.87
S6: E 1.41 | I 1.97 | P 2.23 | K 2.05 | D 2.61 | G 2.75 | R 1.67 | W 3.82 | N 3.54 | Q 3.02 | T 2.4
L16: Y 3.11 | G 2.28 | F 2.47 | W 2.44 | K 3 | S 2.26 | M 3.83 | D 1.93 | N 2.37 | C 3.99 | P 2.27 | Q 2.32
H11: D 3.15 | M 4.12 | I 1.58 | P 2.11 | L 1.89 | T 3.44 | S 2.71
Y9: F 3.55 | E 2.05 | V 2.54 | P 1.84 | H 1.33 | I 4.18 | N 2.96 | D 2.17 | A 1.37
D12: T 2.95 | Y 3.7 | Q 3.51 | L 2.57 | W 2.12 | P 3.38 | R 3.23 | A 2.68 | N 1.98 | K 1.39
V2: W 1.79 | S 2.33 | N 1.63 | I 2.75 | Q 1.62 | D 2.17 | K 1.97 | H 2.52 | E 1.41 | R 2.15 | T 1.45 | C 1.04
A1: Q 2.39 | H 4.3 | E 4.15 | C 3.85 | T 4.21 | K 3.83 | Y 2.9 | I 2.99 | N 2.3 | M 2.57
L3: P 3.11 | T 2.38 | S 1.45 | N 2.38 | R 1.45 | A 2.48 | M 3.26 | C 2.92 | I 3.32 | E 2.04 | Q 1.93 | K 1.64 | H 2.22
L15: M 1.94 | E 1.38 | Q 1.76 | P 1.3 | F 3.52 | D 2.77 | I 3.58 | A 1.66 | N 2.76 | G 3.34 | C 1.87 | K 2.3 | H 1.4
P8: F 2.55 | L 3.83 | D 2.5 | G 3.22 | R 4.82 | A 2.55 | H 2.88 | I 2.73
Q13: I 4.9 | P 1.64 | K 1.92 | D 3.61 | L 1.43 | T 3.86 | V 2.02 | A 3.38 | G 2.15 | H 2.48 | F 3 | M 2.94
M19: T 2.57 | S 2.68 | R 2.92 | G 1.04 | P 3.42 | W 1.8 | L 2.23 | A 2.09 | Q 1.46 | K 1.37 | E 1.69 | C 3.68
